Biological target: T1, Mtu DnaB intein (IVPS) (Mycobacterium tuberculosis, UniProt P9WMR3)
T1 sequence (P9WMR3 whole entry, looked up): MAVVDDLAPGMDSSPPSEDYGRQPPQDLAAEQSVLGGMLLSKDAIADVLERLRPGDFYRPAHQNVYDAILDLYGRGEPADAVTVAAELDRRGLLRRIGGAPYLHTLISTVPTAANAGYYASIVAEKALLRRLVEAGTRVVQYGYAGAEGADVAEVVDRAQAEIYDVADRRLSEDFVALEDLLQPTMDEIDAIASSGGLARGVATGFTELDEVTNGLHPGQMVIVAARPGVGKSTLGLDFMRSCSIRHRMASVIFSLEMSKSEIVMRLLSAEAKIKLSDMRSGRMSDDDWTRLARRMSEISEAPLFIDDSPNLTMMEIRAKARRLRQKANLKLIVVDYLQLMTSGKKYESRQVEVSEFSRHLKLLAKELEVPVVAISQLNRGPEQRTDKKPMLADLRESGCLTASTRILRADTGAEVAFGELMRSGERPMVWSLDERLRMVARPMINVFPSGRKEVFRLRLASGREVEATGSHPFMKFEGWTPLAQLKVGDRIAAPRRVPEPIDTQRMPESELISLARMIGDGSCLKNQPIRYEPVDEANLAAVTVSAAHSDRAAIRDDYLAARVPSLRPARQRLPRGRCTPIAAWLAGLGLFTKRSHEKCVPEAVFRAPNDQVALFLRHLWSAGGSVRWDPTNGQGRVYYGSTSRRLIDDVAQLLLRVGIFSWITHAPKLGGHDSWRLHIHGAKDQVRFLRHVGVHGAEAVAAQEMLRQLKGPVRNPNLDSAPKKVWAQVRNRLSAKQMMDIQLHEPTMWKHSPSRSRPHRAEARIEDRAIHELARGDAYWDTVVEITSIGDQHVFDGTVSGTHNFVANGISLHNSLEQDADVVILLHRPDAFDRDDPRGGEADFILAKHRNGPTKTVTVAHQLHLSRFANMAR
Assay type: cell-based
Conditions: E. coli, peptide in chicken α-spectrin loop on pEA825 (wild type Mtu dnaB), 37° C., 1 mM IPTG for 3 hours, crude cell extracts, anti-T7 tag immuno-staining

Substance | protein splicing of the Mtu DnaB intein (detection of Mtu DnaB protein splicing products)
RPAPRPL [pEA815] | selected for inhibition of splicing
DLPMVEE [pEA818rev, reference compound] | occurred as efficiently as with the pMtu DnaB clone
HPNPHPTLSGQR [pEA818] | selected for inhibition of splicing
TVQSTKR [pEA814] | selected for inhibition of splicing
PTRPTAPPLNFS [pEA817] | selected for inhibition of splicing
PTARTYE [pEA816] | selected for inhibition of splicing

Reference: patent US7157224B2, “Screening and use of agents which block or activate intein splicing utilizing natural or homologous exteins” (priority 1992, dated 2007)
